Laboratory results: US12129308

Molecular target: Aggrecan
Assay: competition ELISA (CAP) on Aggrecan; competitor not stated

IC50: 870 pM
B1: C010100626 (bispecific antibody, part only; not given: albumin binder and linker, not shown: small tags and cut ends)
chain, part: EVQLVESGGGLVQPGGSLRLSCAASGSTFIINVVRWYRRAPGKQRELVATISSGGNANYVDSVRGRFTISRDNSKNTVYLQMNSLRPEDTAVYYCNVPTTHYGGVYYGPYWGQGTLVTVSSEVQLVESGGGLVQPGGSLRLSCAASGSTFIINVVRWYRRAPGKQRELVATISSGGNANYVDSVRGRFTISRDNSKNTVYLQMNSLRPEDTAVYYCNVPTTHYGGVYYGPYWGQGTLVTVSS
